Laboratory results reported in patent US20260139026A1 (Memorial Sloan Kettering, published 2026).

Columns and labels:
[1] = biological target: P8 peptide … pulsed on HLA-A*03:01 cells (human, UniProt A*03:01); assay: cell-based or functional assay
[2] = biological target: P4 peptide … pulsed on HLA-A*03:01 cells (human, UniProt A*03:01); assay: cell-based or functional assay
[3] = biological target: P2 peptide … pulsed on HLA-A*03:01 cells (human, UniProt A*03:01); assay: cell-based or functional assay
[4] = biological target: P5 peptide … pulsed on HLA-A*03:01 cells (human, UniProt A*03:01); assay: cell-based or functional assay
[5] = biological target: P7 peptide … pulsed on HLA-A*03:01 cells (human, UniProt A*03:01); assay: cell-based or functional assay
[6] = biological target: P6 peptide … pulsed on HLA-A*03:01 cells (human, UniProt A*03:01); assay: cell-based or functional assay
[7] = biological target: P9 peptide … pulsed on HLA-A*03:01 cells (human, UniProt A*03:01); assay: cell-based or functional assay
[8] = biological target: P3 peptide … pulsed on HLA-A*03:01 cells (human, UniProt A*03:01); assay: cell-based or functional assay
[9] = biological target: T1, recombinant HLA-A*03:01 (human); assay: differential scanning fluorimetry of peptide/HLA-A*03:01, two technical replicates
T1 construct: MHC class I molecule used in differential scanning fluorimetry and crystallography. 'Recombinant' is printed only for the crystal structures; also called HLA-A*03:01 molecule

B1: 1022T8 TCR (TCR, V domains shown)
V domain 1: GDSVTQMEGPVTLSEEAFLTINCTYTATGYPSLFWYVQYPGEGLQLLLKATKADDKGSNKGFEATYRKETTSFHLEKGSVQVSDSAVYFCALTVGGSYIPTFGRGTSLIVHP
V domain 2: DTEVTQTPKHLVMGMTNKKSLKCEQHMGHRAMYWYKQKAKKPPELMFVYSYEKLSINESVPSRFSPECPNSSLLNLHLHALQPEDSALYLCASSQGGQGWRETQYFGPGTRLLVLE
Q: B1 was tested. Which “loss in function against the unmodified mutated 9-mer” value (“loss in function” below) [1] did it give?
A: Its value is greater than 50 % loss in function.

Q: And the “loss in function” value [2]?
A: The value was greater than 50 % loss in function.

Q: What about the “loss in function” value [3] of the same binder?
A: The value was greater than 50 % loss in function.

Q: And the “loss in function” value [4]?
A: Its value is greater than 50 % loss in function.

Q: And the “loss in function” value [5]?
A: The value was greater than 50 % loss in function.

Q: What about the “loss in function” value [6] of the same binder?
A: Its value is greater than 50 % loss in function.

Q: What about the “loss in function” value [7] of the same binder?
A: The value was greater than 50 % loss in function.

Q: What about the “loss in function” value [8] of the same binder?
A: Its value is greater than 50 % loss in function.

Q: AHHGGWTTK (also called WT peptide) [wildtype PIK3CA minimal peptide AHHGGWTTK] was tested. Which melting temperature [9] did it give?
A: The melting temperature was 36 degrees.
